Data published in patent publication US20100248328A1, “HYPERACTIVE VARIANTS OF 5-AMINOLEVULINATE SYNTHASE AND METHODS OF USE” (UNIVERSITY OF SOUTH FLORIDA, priority 2005, published 2010).
Where two headings read alike, the source gives them in different places.

Assays:
[1] = tested on: H1299 lung carcinoma cells; conditions: added to cells infected with ALAS construct; cited from earlier work
[2] = ALAS steady-state activity, continuous spectrophotometric assay; assay type: biochemical; conditions: 20° C.
Experimental: ALAS steady-state activity of the ALAS active site loop variants was determined at 20° C. using a continuous spectrophotometric assay as described previously for wild-type ALAS (Hunter & Ferreira. A continuous spectrophotometric assay for 5-aminolevulinate synthase that utilizes substrate cycling. Anal Biochem. 1995 Apr. 10; 226(2):221-4). Rapid scanning stopped-flow measurements were performed using a model RSM-100 stopped-flow spectrophotometer (OLIS, Inc.). This instrument has a dead-time of approximately 2-ms and an observation chamber path length of 4 mm Spectral scans covering a wavelength range of 300-570 nm were collected at a rate of 1000 scans/s and then averaged to 62 scans/s in order to reduce the time course data files to an appropriate size for global fit analyses. The temperature of the syringes and the stopped-flow cell compartment was maintained at 20° C. by an external water bath. Pre-steady-state kinetic reactions of the variant enzymes were examined under single turnover conditions, using final concentrations of 60 μM enzyme, 120 mM glycine and 10 μM succinyl-CoA in 100 mM HEPES, pH 7.5 and 10% (v/v) glycerol as previously described (Hunter, & Ferreira. Pre-steady-state reaction of 5-aminolevulinate synthase. Evidence for a rate-determining product release J Biol Chem. 1999 Apr. 30; 274(18):12222-8). Single turnover data were evaluated using either a two- or three-kinetic-step mechanism as described by Equations 1 and 2, respectively (Hunter, & Ferreira. Pre-steady-state reaction of 5-aminolevulinate synthase. Evidence for a rate-determining product release J Biol Chem. 1999 Apr. 30; 274(18):12222-8).
(§1) The ALAS steady-state kinetic parameters of wild-type ALAS and the SS2 variant activity assays were also determined at 15, 25, and 35° C.

[3] = 37 C, pH 7.2; cited from earlier work
[4] = Temperature dependence of steady-state kinetics, Arrhenius plot, thermodynamic activation parameters; assay type: biochemical
Experimental: FIG. 9 is a graph showing the thermal dependence of the SS2 variant-catalyzed reaction. kcat values were calculated by performing steady-state kinetics at different temperatures. (A) an Arrhenius plot depicting the difference between the wild-type ([…]) and the SS2 variant-catalyzed (◯) reactions at 288, 293, 298, 303 and 308K. Error bars are plotted over and partially obscured by the data points.
as §1
The natural log of the calculated values for the turnover numbers (lnkcat) were plotted vs. the inverse of temperature and the data were fit to the Arrhenius equation.
where Ea is the activation energy, R is the universal gas constant, T is the absolute temperature, and A is the frequency factor. The determined activation energies were then used to calculate the thermodynamic activation parameters, ΔH, ΔG and ΔS, as previously described (Hunter, et al. Transient kinetic studies support refinements to the chemical and kinetic mechanisms of aminolevulinate synthase. J Biol. Chem. 2007 Aug. 10; 282(32):23025-35. Epub 2007 May 7). The turnover numbers for each enzyme were used to construct an Arrhenius plot, from which the thermodynamic activation parameters were derived seen in Table 4.

[5] = Pre-steady-state single turnover reactions, rapid scanning stopped-flow (quinonoid intermediate, 510 nm); assay type: biochemical; conditions: 20° C.
Experimental: FIGS. 5(A) through (D) are graphs showing the single turnover reactions of isolated hyperactive ALAS variants. The pre-steady state kinetic parameters were determined under single turnover conditions (60 μM enzyme-glycine complex, 10 μM succinyl-CoA) at 20° C. by monitoring absorbance changes at 510 nm. The variant catalyzed reactions A4, D8, G7, A8, (panels A-D, respectively) resemble that of the wild-type enzyme in that quinonoid lifetime is observed as a single step of quinonoid intermediate formation and 2-step process of decay (Hunter, & Ferreira. Pre-steady-state reaction of 5-aminolevulinate synthase. Evidence for a rate-determining product release J Biol. Chem. 1999 Apr. 30; 274(18):12222-8).
FIGS. 6(A) through (D) are graphs showing the single turnover reactions of isolated hyperactive ALAS variants. The pre-steady state kinetic parameters were determined under single turnover conditions (60 μM enzyme-glycine complex, 10 μM succinyl-CoA) at 20° C. by monitoring absorbance changes at 510 nm. […]
FIG. 7 is a graph showing the SS2 variant catalyzed reaction. Equilibrium and pre-steady state kinetic parameters for the SS2 variant were determined at 20° C. by monitoring changes in absorbance at 510 nm associated with quinonoid intermediate lifetime, under single-turnover conditions.
ALAS steady-state activity of the ALAS active site loop variants was determined at 20° C. using a continuous spectrophotometric assay as described previously for wild-type ALAS (Hunter & Ferreira. A continuous spectrophotometric assay for 5-aminolevulinate synthase that utilizes substrate cycling. Anal Biochem. 1995 Apr. 10; 226(2):221-4). […] Single turnover data were evaluated using either a two- or three-kinetic-step mechanism as described by Equations 1 and 2, respectively (Hunter, & Ferreira. Pre-steady-state reaction of 5-aminolevulinate synthase. Evidence for a rate-determining product release J Biol Chem. 1999 Apr. 30; 274(18):12222-8). […]

Molecule | Potentiation of photosensitivity [1] | Kcat [2] [s⁻¹] | Km ([2]; read-out: Km^Gly) [mM] | Km ([2]; read-out: Km^SCoA) [mM] | Catalytic efficiency for the substrate glycine [3] [M⁻¹ s⁻¹] | ΔG^‡ (30° C.) ([4]; 30° C.) [kcal/mol] | ΔH^‡ (30° C.) ([4]; 30° C.) [kcal/mol] | ΔS^‡ (30° C.) ([4]; 30° C.) [cal/mol · K] | Slope/(K) of Arrhenius plot ([4]; 288-308 K) [K] | Ea, activation energy ([4]; 288-308 K, listed as WTALAS) [kcal/mol] | Q10 for the catalytic rate constant ([4]; steady-state temperature dependence) | Qf, rate for quinonoid intermediate formation ([5]; 60 μM enzyme, 120 mM glycine, 10 μM succinyl-CoA) [s⁻¹] | Qd1, rate for first step of quinonoid intermediate decay [5] [s⁻¹] | Qd2, rate for second step of quinonoid intermediate decay [5] [s⁻¹]
CC(=O)N(O)CCCCCNC(=O)CCC(=O)N(O)CCCCCNC(=O)CCC(=O)N(O)CCCCCN [desferrioxamine] | two-fold |  |  |  |  |  |  |  |  |  |  |  |  | 
WT: wild-type murine erythroid 5-aminolevulinate synthase (mALAS-2) (protein, UniProt P08680 50-587, looked up) 5-aminolevulinate synthase, …: QIHLKATKAGGDSPSWAKSHCPFMLSELQDRKSKIVQRAAPEVQEDVKTFKTDLLSTMDSTTRSHSFPSFQEPEQTEGAVPHLIQNNMTGSQAFGYDQFFRDKIMEKKQDHTYRVFKTVNRWANAYPFAQHFSEASMASKDVSVWCSNDYLGISRHPRVLQAIEETLKNHGAGAGGTRNISGTSKFHVELEQELAELHQKDSALLFSSCFVANDSTLFTLAKLLPGCEIYSDAGNHASMIQGIRNSGAAKFVFRHNDPGHLKKLLEKSDPKTPKIVAFETVHSMDGAICPLEELCDVAHQYGALTFVDEVHAVGLYGARGAGIGERDGIMHKLDIISGTLGKAFGCVGGYIASTRDLVDMVRSYAAGFIFTTSLPPMVLSGALESVRLLKGEEGQALRRAHQRNVKHMRQLLMDRGFPVIPCPSHIIPIRVGNAALNSKICDLLLSKHSIYVQAINYPTVPRGEELLRLAPSPHHSPQMMENFVEKLLLAWTEVGLPLQDVSVAACNFCHRPVHFELMSEWERSYFGNMGPQYVTTYA |  | 0.02 ± 0.01 | 14 ± 2 | 0.011 ± 0.001 | 56.7 | 19 | 48 | −95 | −24000 | 48 | seven | 0.8 | 0.53 | 0.01
